Reference: article doi:10.1101/2024.12.18.629156

What was measured:
[1] = tested on: His6-SUMO-ecHOP1-wHTH WT (Ectocarpus (E. siliculosus; model brown alga)); assay: EMSA
[2] = target: ecHOP1-HORMA (2xStrepII-ecHOP1-HORMA, residues 1-274) (Ectocarpus); assay: ITC

Kd [2]	Substance	Kd [1]
–	167 bp Widom DNA	0.25 µM
7.2 µM	MBP-ecHOP1 CM1-1 (closure motif 1 of ecHOP1 isoform 1, residues 567-600) (domain or fragment)	–
10.6 µM	MBP-ecHOP1 CM2-1 (closure motif 2 of ecHOP1 isoform 1, residues 665-694) (domain or fragment)	–
60.3 µM	MBP-ecRED1 CM1 (putative closure motif 1 of ecRED1) (domain or fragment)	–
